Experimental data published in US20150239990A1 (published 2015).

B1: safe variant 1F2 (partially humanized, fused to human C-lambda and CH1), Fab displayed on phage (Fab, V domains shown)
VH: EVQLLESGGGLVQPGGSLRLSCAASGFTFSTYAMSWVRQAPGKGPEWVSGINTGGGSTGYADSVKGRFTISRDNSKNTLYLQMNSLRPEDTAVYYCAKDWMATTPWGQGTQVTVSS
VL: QTVVTQEPSFSVSPGGTVTLTCGLSSGSVTTNNYPGWFQQTPGQAPRTLIYNTNNRHSGVPSRFSGSILGNKAALTITGAQADDESDYYCALYMSSGSNNAVFGGGTKLTVLG
notes: also called safe 1F2
B2: wt 1F2 (llama VL and VH fused to human C-lambda and CH1), Fab displayed on phage (Fab, V domains shown)
VH: EVQLVESGGGLVQPGGSLRLSCAASGFTFSTYAMSWVRQAPGKGPEWVSGINTGGGSTGYADSVKGRFTISRDNAKNTLYLQMNSLKPEDTAVYYCAKDWMATTPWGQGTQVTVSS
VL: QAVVTQEPSLSVSPGGTVTLTCGLSSGSVTTNNYPGWFQQTPGQAPRTLIYNTNNRHSGVPSRFSGSISGNKAALTITGAQPEDEADYYCALYMSSGSNNAVFGGGTHLTVLG
notes: Tested as a gene3-Fab fusion on phage (crude phage extract)
B3: hum 1F2 (fully humanized VL and VH fused to human C-lambda and CH1), Fab displayed on phage (Fab, V domains shown)
VH: EVQLLESGGGLVQPGGSLRLSCAASGFTFSTYAMSWVRQAPGKGLEWVSGINTGGGSTGYADSVKGRFTISRDNSKNTLYLQMNSLRAEDTAVYYCAKDWMATTPWGQGTLVTVSS
VL: QTVVTQEPSFSVSPGGTVTLTCGLSSGSVTTNNYPGWYQQTPGQAPRTLIYNTNNRSSGVPDRFSGSILGNKAALTITGAQADDESDYYCALYMSSGSNNAVFGGGTKLTVLG
notes: Tested as a gene3-Fab fusion on phage
B4: hum 1E2 (fully humanized VL and VH fused to human C-lambda and CH1), Fab displayed on phage (Fab, V domains shown)
VH: EVQLVESGGGLVQPGGSLRLSCAASGFTFSNYWMYWVRQAPGKGLEWVSAINAAGSTYYADSVKGRFTISRDNSKNTLYLQMNSLRAEDTAVYYCANLPRWGQGTLVTVSS
VL: QTVVTQEPSFSVSPGGTVTLTCGLSSGSVTSGNYPGWYQQTPGQAPRTLIYNTNSRSSGVPDRFSGSILGNKAALTITGAQADDESDYYCAVYIGSSSYPVVFGGGTKLTVLG
notes: as for B3
B5: wt 1E2 (llama VL and VH fused to human C-lambda and CH1), Fab displayed on phage (Fab, V domains shown)
VH: EVQLVESGGGLVQPGGSLRLSCTASGFTFSNYWMYWVRQAPGKGLEWVSAINAAGSTYYADSVKGRFTISRDNAKNTLYLQMNSLQSEDTALYYCANLPRWGQGTQVTVSS
VL: QTVVTQEPSLSVSPGGTVTLTCGLSSGSVTSGNYPGWYQQKPGQAPRTLIYNTNSRYSGVPNRFSGSISGNKAALTITGAQPEDEADYYCAVYIGSSSYPVVFGGGTHLTVLG
notes: as for B3
B6: safe variant 1E2 (partially humanized, fused to human C-lambda and CH1), Fab displayed on phage (Fab, V domains shown)
VH: EVQLVESGGGLVQPGGSLRLSCAASGFTFSNYWMYWVRQAPGKGLEWVSAINAAGSTYYADSVKGRFTISRDNSKNTLYLQMNSLQSEDTAVYYCANLPRWGQGTQVTVSS
VL: QTVVTQEPSFSVSPGGTVTLTCGLSSGSVTSGNYPGWYQQKPGQAPRTLIYNTNSRSSGVPDRFSGSILGNKAALTITGAQPDDESDYYCAVYIGSSSYPVVFGGGTHLTVLG
notes: also called safe 1E2
B7: chimeric 1E2 Fab (llama VL and VH of 1E2 fused to human C-lambda and CH1) (Fab, V domains shown)
VH: EVQLVESGGGLVQPGGSLRLSCTASGFTFSNYWMYWVRQAPGKGLEWVSAINAAGSTYYADSVKGRFTISRDNAKNTLYLQMNSLQSEDTALYYCANLPRWGQGTQVTVSS
VL: QTVVTQEPSLSVSPGGTVTLTCGLSSGSVTSGNYPGWYQQKPGQAPRTLIYNTNSRYSGVPNRFSGSISGNKAALTITGAQPEDEADYYCAVYIGSSSYPVVFGGGTHLTVLG
notes: Purified from E. coli (pCB5, no gene3); Myc and hexahistidine tags on the Fd; also called wt 1E2
B8: Fab 1E2 wt VL / hum VH (with human CL and human CH1) (Fab, V domains shown)
VH: EVQLVESGGGLVQPGGSLRLSCAASGFTFSNYWMYWVRQAPGKGLEWVSAINAAGSTYYADSVKGRFTISRDNSKNTLYLQMNSLRAEDTAVYYCANLPRWGQGTLVTVSS
VL: QTVVTQEPSLSVSPGGTVTLTCGLSSGSVTSGNYPGWYQQKPGQAPRTLIYNTNSRYSGVPNRFSGSISGNKAALTITGAQPEDEADYYCAVYIGSSSYPVVFGGGTHLTVLG
notes: Purified from E. coli; also called wt/hum; wt VA/hum VH
B9: Fab 1E2 wt VL / safe VH (with human CL and human CH1) (Fab, V domains shown)
VH: EVQLVESGGGLVQPGGSLRLSCAASGFTFSNYWMYWVRQAPGKGLEWVSAINAAGSTYYADSVKGRFTISRDNSKNTLYLQMNSLQSEDTAVYYCANLPRWGQGTQVTVSS
VL: QTVVTQEPSLSVSPGGTVTLTCGLSSGSVTSGNYPGWYQQKPGQAPRTLIYNTNSRYSGVPNRFSGSISGNKAALTITGAQPEDEADYYCAVYIGSSSYPVVFGGGTHLTVLG
notes: Purified from E. coli; also called wt/safe; wt VA/safe VH
B10: Fab 1F2 (llama Fab selected against IL-1Beta) (Fab, V domains shown)
VH: EVQLVESGGGLVQPGGSLRLSCAASGFTFSTYAMSWVRQAPGKGPEWVSGINTGGGSTGYADSVKGRFTISRDNAKNTLYLQMNSLKPEDTAVYYCAKDWMATTPWGQGTQVTVSS
VL: QAVVTQEPSLSVSPGGTVTLTCGLSSGSVTTNNYPGWFQQTPGQAPRTLIYNTNNRHSGVPSRFSGSISGNKAALTITGAQPEDEADYYCALYMSSGSNNAVFGGGTHLTVLG
notes: Original clone from the llama Fab phage library
B11: wild type llama 1E2 Fab (Fab, V domains shown)
VH: EVQLVESGGGLVQPGGSLRLSCTASGFTFSNYWMYWVRQAPGKGLEWVSAINAAGSTYYADSVKGRFTISRDNAKNTLYLQMNSLQSEDTALYYCANLPRWGQGTQVTVSS
VL: QTVVTQEPSLSVSPGGTVTLTCGLSSGSVTSGNYPGWYQQKPGQAPRTLIYNTNSRYSGVPNRFSGSISGNKAALTITGAQPEDEADYYCAVYIGSSSYPVVFGGGTHLTVLG
notes: Produced from phagemid pCB3; Hexahistidine and myc tags at the C-terminus of the Fd; Captured by anti-myc; also called Fab 1E2

Target: T1, neutravidin (UniProt P02701 25-152)
T1 construct: Capture reagent of the phage ELISA; Wells without biotinylated IL-1Beta served as the negative control
T1 sequence (P02701 25-152): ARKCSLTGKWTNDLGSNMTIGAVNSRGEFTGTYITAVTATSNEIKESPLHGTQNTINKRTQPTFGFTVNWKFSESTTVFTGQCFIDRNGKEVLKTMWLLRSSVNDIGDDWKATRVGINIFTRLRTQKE
Experiment: phage ELISA on neutravidin coated wells, anti-M13-HRP detection
Protocol: (§1) Four clones for each Fab were tested to overcome clonal variation (due to bacterial growth, phage production efficiency and toxicity etc. . . . ). Phage ELISA was performed by capturing of biotinylated IL-1Beta on neutravidin coated Maxisorp plate and subsequent incubation of crude phage extract (i.e. bacterial medium). After extensive washing, bound phages were detected with an anti-M13-HRP monoclonal antibody.

Question: Does B1 bind?
Answer: no binding

Question: Does B2 bind?
Answer: no binding

Question: Does B3 bind?
Answer: no binding

Question: Does B4 bind?
Answer: no binding

Question: Does B5 bind?
Answer: no binding

Question: Does B6 bind?
Answer: no binding

Target: T2, biotinylated human IL-1Beta (human, UniProt P01584 117-269, biotinylated (positions not stated))
T2 construct: In the assays it was biotinylated; also called biot-IL-1Beta
Experiment: ELISA: Fab captured on anti-myc plate, biotinylated human IL-1Beta, streptavidin-HRP
Protocol: For this the Fabs were captured on an anti-myc coated Maxisorp plate. Biotinylated human IL-1Beta was added and bound cytokine was detected using HRP-conjugated streptavidin.
The purified llama and chimeric 1E2 Fabs described above were captured on anti-myc coated maxisorp plates. After incubation with biotinylated human IL-1Beta and extensive washing, the biotinylated IL-1Beta bound to the Fab was detected using HRP-conjugated streptavidin.

Question: Does B7 bind?
Answer: binds

Question: Does B8 bind?
Answer: binds

Question: Does B9 bind?
Answer: binds

Target: T2, biotinylated human IL-1Beta
Experiment: phage display selection and phage ELISA on biotinylated IL-1Beta

Question: Does B10 bind?
Answer: binds

Question: Does B11 bind?
Answer: binds

Target: T2, biotinylated human IL-1Beta
Experiment: phage ELISA: biotinylated IL-1Beta captured on neutravidin, crude phage, anti-M13-HRP
Protocol: as §1

Question: Does B3 bind?
Answer: binds
